Laboratory results from the DeepSol protein solubility set.

assay: soluble on expression in E. coli; label from the status in PepcDB or PDB records

Soluble on expression in E. coli, soluble:
MSLEDRIDQVEQAITKSRRYQTVAPATVRRLARAALVAARGDVPDAVKRTKRGLHEIYGAFLPPSPPNYAALLRQLDSAVDAGDDEAVRAALRRAMSVHVSTRERLPHLAEFYQEIFRHVPQPNTLRDLACGLNPLAAPWMGLSDQTVYVASDIDARLIGFVDAALTRLGVAHRTSVVDLLEDRLDEPTDVTLLLKTLPCLETQRRGSGWEVIDIVNSPIIVVTFPTKSLGQRSKGMFQNYSQSFESQARERSCRIQRLEIGNELIYVIQKEGHHHHHH, MAHHHHHHMMNTSLLGQDVDEIQSAVDRWYHQSSSNLQASHAAFTAQLRQLQERLGLDPGAPTLSAHVDAMITPPRHMYLSDDNNSGSPPMASPPISRGQLNYDHLLDEVINKGASMPPFNPEEEAERRRRPNAESVRAPSTPPEDCNGPCQVLVEFKRKRVLQYESPYYVAPGEHVVVGGDRGEDIGLVTHSWRDAEAHQLGENRDKGVGKVLRVASVLEVTQLQGVQTELETRAVEVAQEKVQESGLPMRIVDAEYQFDRRKLTFYYQSMHRLDFRTLVRDLYKTFRARIWMEPDTSS, GPGSMVEACFLCLDSTEYMRNGDQYPTRMMAEQDAACLLANAKLQANAENTLGFLTTGGNACTVYETLTNNVDAIMTSIGSIPVNGKRCNFSSGLQIASLALSHRTNSRAEKRIVAFVGSPIGETAAELEALAKKLRKDDVAVDVVAFGVESNVELLQAFVKKVSKKENSRFLAVAARENLTDKLMSNAILLGEDLPEGAEGGGASMSGFGVDPNMDPELAMALRLSMEDEMQRQAAAAAAAASSAAPESAPASGSAATPAAPAAPAAAPVVDEDELSYENMSEEEMMRRAIALSLQDTAQGASDTASSPSVPQPATTSEACRNEEENEDDFAKGVEAALEEEEDEENRS, MGSGKERDTFVYLAKLSEQAERYEEMVESMKSVAKLNVDLTVEERNLLSVGYKNVIGSRRASWRIFSSIEQKEAVKGNDVNVKRIKEYMEKVELELSNICIDIMSVLDEHLIPSASEGESTVFFNKMKGDYYRYLAEFKSGNERKEAADQSLKAYEIATTAAEAKLPPTHPIRLGLALNFSVFYYEIMNAPERACHLAKQAFDEAISELDTLNEESYKDSTLIMQLLRDNLTLWTSDISEEGGDDAHKTNGSAKPGAGGDDAE, MFDSLAKAGKYLGQAAKLMIGMPDYDNYVEHMRVNHPDQTPMTYEEFFRERQDARYGGKGGARCC, MSLEKKTANDVVTLARAQDRLTTLEYIEAIFEDFLEFHGDRYFADDLAVVGGVATLQGKPVTVVGIQKGRNLPENIERNFGSPNPEGYRKALRLMKQAEKFNRPVITFVNTAGAYCGIGAEERGEGEAIAQNLLEMSDLKVPIISVIIGEGGSGGALALAVADEVWMLEHTIYAVLSPEGFASILWKDGSRAKEAAELMKITATELKELAIVDKVIPEVMNGQPLEQAKINRMLQKAFISKLTELAKLDTETLLEKRYQRFRKYEGHHHHHH, MAHHHHHHMEGDISSSAFVCGFTAHRAHPLSPISDIRDLCVPRTSTPSASSHALAQALSFPRRPLPHRLLASCLLITTTNRFQAHCSRSAATQPPPPLPCGTTTEREYGWDGLAVFLSADSRVFRSPFSTIVSRFSPFVAAMSDRDVPASMTRTCAPPKAHFLFCSTDARNAAPASNGDVAKLPAPKKPISAPLTPFQSPVDTHRDRHSSRHASPPRQLGRPLPPTQPSFSDVAKRMGSFNDMCEANSLLSSHVRLGEMSTLGISASTSTIPAGSSGSTTSLHWLRIAEDRVMPHPSSTKPAPAALQRNAEYVLERWVEQKVHRTAAMDDAMMKVAAAFDELYA, QLSPDIYAKSCPNLVQIVRKQVAIALKAEIRMAASLIRLHFHDCFVNGCDASLLLDGADSEKLAIPNINSARGFEVIDTIKAAVENACPGVVSCADILTLAARDSVVLSGGPGWRVALGRKDGLVANQNSANNLPSPFEPLDAIIAKFVAVNLNITDVVALSGAHTFGQAKCAVFSNRLFNFTGAGNPDATLETSLLSNLQTVCPLGGNSNITAPLDRSTTDTFDNNYFKNLLEGKGLLSSDQILFSSDLAVNTTKKLVEAYSRSQSLFFRDFTCAMIRMGNISNGASGEVRTNCRVINN

Soluble on expression in E. coli, not soluble:
MAGSKKSNRREEILQALAQMLESAEGASRITTAKLAKQVGVSEAALYRHFPSKARMFEGLIEFIEEALMTRINRILDDEKDTLERIRMVMHLILAFSERNPGLTRILSGHALMFENERLRERINQLFERIETQLRQILRERKIREGKSFPVEERILAAQILGQVEGSLNRFVRSDFKYQPTANFDEYWALLSAQIK, MSLEYLLQAAGIPRSTFFYHQKRLSKPDKHAELKDAIRASFERNKHRYGYRRVLLDLRNQGWVVNHKLVYKLMCEMGLRAKIRQRRPYVSYTGTISHIADNKLDRKFTPDQPNTVFVSDVTEFRVAGRKVYLSPVMDLFDRSIVAHTVATSPSTALTTDSLSKAIAACEPEPGWMIHTDQGFQYQHASWRDLIGDNGGVQSMSRKANCYDNAVMENFFGHLKTEMYHGEVFDTVAEFNQVIDEYIQWYNTERIQQRLKGLTPMQYRNQTLEALTAEGHHHHHH, MATPEGQAEEKAVKLAAEEINAQGGILGYKVEVVVGDTKLDSNTATSEFRRLATVENADVIIGGFSSGVMTAMMETMAETKTLFLSDASSPAHAQKVEQNYEKYKYWFRVSQNNGSTFALDLADMVKFLRDSGYEVKKVYIIRDEHVWTDPVMAALKPLLEEMGVEIVKDVKIPRGYSEYEQLILEAESLNADLIMPILAISGTGDVLAKQWATLKPNLLLAGHDLAPIDPEFYEKTNGMANYEIFLADGGALVTAPPTEKCREFVEAYKAKYGHYPESHQAYGAYDAVYLYKMVVEMAAKNGEKDPFNPDVLVKYLEKFDASNPVKLTRTIAFYPNHDLMWGDDYVRNWISQWQDGKQYIIYPPSVANGELKLPPWIEK, MRDATPFYEATGHEIEVFERAWRHGLPVLLKGPTGCGKTRFVQYMARRLELPLYSVACHDDLGAADLLGRHLIGADGTWWQDGPLTRAVREGGICYLDEVVEARQDTTVAIHPLADDRRELYLERTGETLQAPPSFMLVVSYNPGYQNLLKGLKPSTRQRFVALRFDYPAAQQEARILVGESGCAETLAQRLVQLGQALRRLEQHDLEEVASTRLLIFAARLIGDGMDPREACRVALAEPLSDDPATVAALMDIVDLHVALEHHHHHH, MSLYDELKNEFKRVLLDRQLTEELAEECATAFTDTTQAGAYSHGINRFPRFIQQLEQGDIVPNAIPTKVLSLGSIEQWDAHQAIGNLTAKKMMDRAIELASQHGVGVIALRNANHWMRGGSYGWQAAEKGYIGICWTNALAVMPPWGAKECRIGTNPLIIAVPTTPITMVDMSCSMYSYGMLEVHRLAGRQTFVDAGFDDEGNLTRDPSIVEKNRRLLPMGFWKGSGLSIVLDMIATLLSNGESTVAVTEDKNDEYCVSQVFIAIEVDRLIDGKSKDEKLNRIMDYVKTAERSDPTQAVRLPGHEFTTILSDNQTNGIPVDERVWAKLKTLEGHHHHHH, MSLSGKVGAPTLEVLRTAVSKRWSANSDLIDAIEHVSRQALLELAERAGQVDEVEDQLFRFSRILDVQPRLAILLGDCAVPAEGRVRLLRKVLERADSTVNPVVVALLSHTVELLRGQAVEEAVLFLAEVAVARRGEIVAQVGAAAELSDAQRTRLTEVLSRIYGHPVTVQLHIDAALLGGLSIAVGDEVIDGTLSSRLAAAEARLPDEGHHHHHH, MKILVTGTEGYLGSLLPSLLIAKGHEVSGLDTGFYKVGWLYNGTNITAKTLNKDIRNIIPEDLEGVDAIVHMAELSNDPAGQLAPHITYEINHLGSVHLANLAKRMGVRRFLYMSSCSVYGVASEGDVTEESPVNPQTAYAECKTLVERDIKPLADDDFSPTFMRNATAFGASPRMRFDIVLNNLSGLAWTTKEIKMTSDGTPWRPLVHALDICQAIICALEAPRDIVHNQVFNVGDTANNYRVKEIAEIIADTFPSCKLTFGNNGSDNRSYRVSFEKINTVLPGFKCEWNAQTGAKQLFDLFSQIDMTEDTFLFRGFTRLKQLEYLIRTQQIDQNFFWAKCDNVVV, MGSDKIHHHHHHMGEVIKNRYEFVVLFDVENGNPNGDPDAGNMPRIDPESGLGIVTDVCLKRKIRNYIETVKEDEDGYKIYIKENVPLNRSDREACKSLGINDDEDKKVTEALKKLKKSDKDADIKLRDYMCRNFYDIRAFGAVMTTFVKASLNCGQVRGPVQLGFARSIDPVISQEVTITRVAITTEKDAENKSNEMGRKSIVPYGLYRVEGYISANLARKVTGFSEEDLELLWDAVINMFENDHSAARGKMAVRELIVFKHSKELGDCPAYKLFDAVKVQKNDDIQYPRKYQDYTVTINDDEIPDTVEVKRMI, MDHGRRRLHSGSTPRGGERPAKRERISVEEQQSQEIRNLKRKLEEARQREDKYIKNEQLHHTAMRSKQQRIERMEKSMESTNRKMYATQCRLNDMENIYDDLEMESKIMADFIDHYYDSRNITEEDRDELQDKLDEEAANYRDLEDRIKEVRHRDRYMKTVETERKRTTFYRKKMLELAEQLQFEQQEVTGETPLWKLCEICAHQFSHSDEYVPRVLVCGHTLCTSCIEKLDVGDGIRCPFCRTWTNMKRIEALPKNFQILQM, MSFNDLYKASIYTMLGSIYAPSGGVIAAPTTSLPEVEGGKRNWDYRFAWVRDSSIIAEALLEAGSIVEARRIINFLLSLINFSSKPFYYPLYTIEGTIPPPERELRWLSGYKNSKPVRIGNGASSQIQLDIEGFFISALYKYVKMTNDQVFLKDVFSKVKYIGDWISENWSLKDSGIWEDRGSPQHYTHSKIMMWIALDKIGKLANLIGYADIWAKEREKLRNWIFTNCVKNNYFIRYCGNTDDVDSSLLSAPLYGFIEVSDSTFINTLTKIENDLKTDVFVKRYKTDFMGEAKHPFLLTTVWLARVYMRLGKIDSAIEILNKINKVSRELHLVGEHVDVEKGEFTGNFPQIFVHAQLVIAIKELNDTLTDKNIILEHHHHHH, MGSDKIHHHHHHMSQMSFSDFEYAGKRKQTRRERFLAEMDQVVPWAGLLGLIEPFYPKAGGGRKPYPLETMLRIHLLQNWFSLSDPAMEEALYEITPMRQFAHLTLSAPIPEDTTIMNFRHLLEKHQLAPAILAVINGYLQEKGLSLRQGTIVDATIIHVPSSTKNKDGERDPEMHQTKKGNQYFFGMKAHISADVESGLVHHVHGTAANVADVTQVAELLHGEENAVYADAGYTGVEKREEHENRDVIWQIAARRSTYSKLNKRSLLYKAKRKIEYCKAQTRAKVEHPFRVIKRQFGYVKVRFRGLMKNTAQLTTLFALSNLWMARKRLMGLGELRI, MRIFLLFLFFVLFTFGVEGYVIEEINGSTGLRIHKEIKRKVYITEDALITETEKEFMVQKIENGLPRIYRVIKSSKSYMDFSKMTPLFLVSLPFLDCKQRVCVVNRGAFRPTNEYKKIRGFKARKVVVESHALGKKTTLIQWYTKEWKELVEANRLEDKFYVNFIRAIMKEKNLSEANIPLKEIQNFLKEINEKFGGVVRTQQQMPLFNTYSEVISVKKTEIPDYIYKLPEGYTKIK, MAISSRNTLLAALAFIAFQAQAVNVTVAYQTSAEPAKVAQADNTFAKESGATVDWRKFDSGASIVRALASGDVQIGNLGSSPLAVAASQQVPIEVFLLASKLGNSEALVVKKTISKPEDLIGKRIAVPFISTTHYSLLAALKHWGIKPGQVEIVNLQPPAIIAAWQRGDIDGAYVWAPAVNALEKDGKVLTDSEQVGQWGAPTLDVWVVRKDFAEKHPEVVKAFSKSAIDAQQPYIANPDVWLKQPENISKLARLSGVPEGDVPGLVKGNTYLTPQQQTAELTGPVNKAIIDTAQFLKEQGKVPAVANDYSQYVTSRFVQ
